Experimental data from patent publication US20170137818, “APTAMER INHIBITING BIOLOGICAL ACTIVITY OF AUTOTAXIN BY BINDING WITH AUTOTAXIN, AND USE THEREOF” (RIBOMIC INC., published 2017).

B1: 12(67) (ssDNA)
DNA: CCTGGACGGAACCAGAATACTTTTGGTCTCCAGG
modifications: 2'-OMe C7,G9,A14,G15,A19,C20,A32,G33,G34; 5' 40 kDa PEG (GL4-400TS) via ssH linker; 3' idT
B2: 12(117) (ssDNA)
DNA: B1 DNA
modifications: 2'-OMe C7,G9,A14,G15,A19,C20,A32,G33,G34; PS after G8; 5' 40 kDa PEG (GL2-400GS2) via ssH linker; 3' idT
B3: 12(66) (ssDNA)
DNA: B1 DNA
modifications: 2'-OMe C7,G9,A14,G15,A19,C20,A32,G33,G34; 5' 40 kDa PEG (GL2-400TS) via ssH linker; 3' idT

biological target: autotaxin (endogenous, human pooled serum) (Homo sapiens, UniProt Q13822 Q13822:36-863); test: inhibition; LPA production in serum, 5.0 uM

**Q.** Which activity does the source give for CCTGGACGGAACCAGAATACTTTTGGTCTCCAGG (ssDNA, 2'-OMe C30,C31) [12(2)] here?
**A.** Its activity is 80 % inhibition.

**Q.** With CCTGGACGGAACCAGAATACTTTTGGTCTCCAGG (ssDNA, 2'-OMe A32,G33,G34) [12(3)] as the binder, how does the activity read?
**A.** The activity was 92 % inhibition.

biological target: autotaxin (ENPP2/NPP2) (Homo sapiens, UniProt Q13822 Q13822:36-863); test: inhibition; LPA production, 0.10 uM aptamer, ~92% serum, 37C 3 h

**Q.** How did the activity turn out when CCTGGACGGAACCAGAATACTTTTGGTCTCCAGG (ssDNA, 2'-OMe C7,G9,A14,G15,A19,C20,A32,G33,G34; P-methyl A6; idT 5' and 3') [12(95)] was run?
**A.** The activity was 64 % inhibition.

**Q.** With CCTGGACGGAACCAGAATACTTTTGGTCTCCAGG (ssDNA, 2'-OMe C7,G9,A14,G15,A19,C20,A32,G33,G34; PS after G25; idT 5' and 3') [12(83)] as the binder, how does the activity read?
**A.** Its activity is 54 % inhibition.

**Q.** For CCTGGACGGAACCAGAATACTTTTGGTCTCCAGG (ssDNA, 2'-OMe C7,G9,A14,G15,A19,C20,A32,G33,G34; P-methyl G25; idT 5' and 3') [12(90)], which activity is on record?
**A.** Its activity is 63 % inhibition.

**Q.** Which activity does the source give for CCTGGACGGAACCAGAATACTTTTGGTCTCCAGG (ssDNA, 2'-OMe C7,G9,A14,G15,A19,C20,U29,A32,G33,G34; idT 5' and 3') [12(71)] here?
**A.** The activity was 31 % inhibition.

**Q.** CCTGGACGGAACCAGAATACTTTTGGTCTCCAGG (ssDNA, 2'-OMe C7,G9,A14,G15,U18,A19,C20,A32,G33,G34; idT 5' and 3') [12(75)] was tested. Which activity did it give?
**A.** Its activity is 65 % inhibition.

**Q.** How did the activity turn out when CCTGGACGGAACCAGAATACTTTTGGTCTCCAGG (ssDNA, 2'-OMe C7,G9,A14,G15,A19,C20,A32,G33,G34; PS after G4; idT 5' and 3') [12(110)] was run?
**A.** The activity was 63 % inhibition.

**Q.** Which activity does the source give for CCTGGACGGAACCAGAATACTTTTGGTCTCCAGG (ssDNA, 2'-OMe C7,G9,A14,G15,A19,C20,A32,G33,G34; PS after T27; idT 5' and 3') [12(85)] here?
**A.** The activity was 68 % inhibition.

**Q.** How did the activity turn out when CCTGGACGGAACCAGAATACTTTTGGTCTCCAGG (ssDNA, 2'-OMe C7,G9,A14,G15,A19,A32,G33,G34; P-methyl C20; idT 5' and 3') [12(65)] was run?
**A.** The activity was 57 % inhibition.

**Q.** How did the activity turn out when B1 was run?
**A.** The activity was 74 % inhibition.

**Q.** CCTGGACGGAACCAGAATACTTTTGGTCTCCAGG (ssDNA, 2'-OMe C7,G9,A14,G15,A19,C20,A32,G33,G34; PS after A17; idT 5' and 3') [12(100)] was tested. Which activity did it give?
**A.** The activity was 80 % inhibition.

**Q.** Which activity does the source give for CCTGGACGGAACCAGAATACTTTTGGTCTCCAGG (ssDNA, 2'-OMe C7,G9,A14,G15,A19,C20,A32,G33,G34; PS after C13; idT 5' and 3') [12(81)] here?
**A.** The activity was 70 % inhibition.

**Q.** For CCTGGACGGAACCAGAATACTTTTGGTCTCCAGG (ssDNA, 2'-OMe C7,G9,A14,G15,A19,C20,A32,G33,G34; P-methyl A16; idT 5' and 3') [12(124)], which activity is on record?
**A.** Its activity is 76 % inhibition.

**Q.** How did the activity turn out when B2 was run?
**A.** The activity was 90 % inhibition.

**Q.** For CCTGGACGGAACCAGAATACTTTTGGTCTCCAGG (ssDNA, 2'-OMe C7,G9,A14,G15,A19,C20,A32,G33,G34; P-methyl A17; idT 5' and 3') [12(125)], which activity is on record?
**A.** Its activity is 78 % inhibition.

**Q.** For CCTGGACGGAACCAGAATACTTTTGGTCTCCAGG (ssDNA, 2'-OMe C7,G9,A14,G15,A19,C20,A32,G33,G34; P-methyl G5; idT 5' and 3') [12(128)], which activity is on record?
**A.** Its activity is 78 % inhibition.

**Q.** With CCTGGACGGAACCAGAATACTTTTGGTCTCCAGG (ssDNA, 2'-OMe C7,G9,A14,G15,A19,C20,A32,G33,G34; PS after T24; idT 5' and 3') [12(82)] as the binder, how does the activity read?
**A.** The activity was 51 % inhibition.

**Q.** CCTGGACGGAACCAGAATACTTTTGGTCTCCAGG (ssDNA, 2'-OMe C7,G9,A14,G15,A19,C20,A32,G33,G34; P-methyl T24; idT 5' and 3') [12(120)] was tested. Which activity did it give?
**A.** Its activity is 67 % inhibition.

**Q.** For CCTGGACGGAACCAGAATACTTTTGGTCTCCAGG (ssDNA, 2'-OMe C7,G9,A14,G15,A19,C20,A32,G33,G34; PS after C12; idT 5' and 3') [12(80)], which activity is on record?
**A.** Its activity is 85 % inhibition.

**Q.** CCTGGACGGAACCAGAATACTTTTGGTCTCCAGG (ssDNA, 2'-OMe C7,G9,A14,A19,C20,A32,G33,G34; P-methyl G15; idT 5' and 3') [12(64)] was tested. Which activity did it give?
**A.** Its activity is 63 % inhibition.

**Q.** B3 was tested. Which activity did it give?
**A.** The activity was 77 % inhibition.

**Q.** CCTGGACGGAACCAGAATACTTTTGGTCTCCAGG (ssDNA, 2'-OMe C7,G9,A14,G15,A19,C20,U21,A32,G33,G34; idT 5' and 3') [12(74)] was tested. Which activity did it give?
**A.** Its activity is 31 % inhibition.

**Q.** Which activity does the source give for CCTGGACGGAACCAGAATACTTTTGGTCTCCAGG (ssDNA, 2'-OMe C7,G9,A14,G15,A19,C20,A32,G33,G34; PS after G5; idT 5' and 3') [12(111)] here?
**A.** The activity was 60 % inhibition.

**Q.** How did the activity turn out when CCTGGACGGAACCAGAATACTTTTGGTCTCCAGG (ssDNA, 2'-OMe C7,G9,A14,G15,A19,C20,A32,G33,G34; PS after A11; idT 5' and 3') [12(79)] was run?
**A.** Its activity is 37 % inhibition.

**Q.** Which activity does the source give for CCTGGACGGAACCAGAATACTTTTGGTCTCCAGG (ssDNA, 2'-OMe C7,G9,A14,G15,A19,C20,U22,A32,G33,G34; idT 5' and 3') [12(73)] here?
**A.** Its activity is 11 % inhibition.

**Q.** For CCTGGACGGAACCAGAATACTTTTGGTCTCCAGG (ssDNA, 2'-OMe C7,G9,A14,G15,A19,C20,A32,G33,G34; PS after A6; idT 5' and 3') [12(76)], which activity is on record?
**A.** The activity was 67 % inhibition.

**Q.** How did the activity turn out when CCTGGACGGAACCAGAATACTTTTGGTCTCCAGG (ssDNA, 2'-OMe C7,G9,A14,G15,A19,C20,A32,G33,G34; PS after C28; idT 5' and 3') [12(86)] was run?
**A.** Its activity is 57 % inhibition.

**Q.** With CCTGGACGGAACCAGAATACTTTTGGTCTCCAGG (ssDNA, 2'-OMe C7,G9,A14,G15,A19,C20,A32,G33,G34; P-methyl G4; idT 5' and 3') [12(59)] as the binder, how does the activity read?
**A.** Its activity is 71 % inhibition.

**Q.** CCTGGACGGAACCAGAATACTTTTGGTCTCCAGG (ssDNA, 2'-OMe C7,G9,A14,G15,A19,C20,A32,G33,G34; P-methyl C30; idT 5' and 3') [12(127)] was tested. Which activity did it give?
**A.** The activity was 79 % inhibition.

**Q.** With CCTGGACGGAACCAGAATACTTTTGGTCTCCAGG (ssDNA, 2'-OMe C7,G9,A14,G15,A19,C20,A32,G33,G34; PS after C2; idT 5' and 3') [12(108)] as the binder, how does the activity read?
**A.** The activity was 68 % inhibition.
